Laboratory results reported in paper PMC8991199 (2022).

B1: S100A5 (natural protein)
chain: METPLEKALTTMVTTFHKYSGREGSKLTLSRKELKELIKKELCLGEMKESSIDDLMKSLDKNSDQEIDFKEYSVFLTMLCMAYNDFFLEDNK

Columns and labels:
[1] = target: fIF, fluorescently labelled H14 foldamer IF (β-peptidic hexamer: β3-amino acids with proteinogenic side chains (I, F) in positions 2 and 5, ACHC (trans-2-aminocyclohexancarboxylic acid) residues; 5(6)-carboxyfluorescein on the ε-amino group of …); experiment: FP
[2] = target: fWL, fluorescently labelled H14 foldamer WL (β-peptidic hexamer: β3-amino acids with proteinogenic side chains (W, L) in positions 2 and 5, ACHC (trans-2-aminocyclohexancarboxylic acid) residues; 5(6)-carboxyfluorescein on the ε-amino group of …); experiment: FP
[3] = target: B1; experiment: FP; competition against fWL
[4] = target: B1; experiment: FP; competition against fIF

| Kd [1] [µM] | Kd [2] [µM] | Kd [3] [µM] | Kd [4] [µM] | Binder |
| --- | --- | --- | --- | --- |
| 32 | 7.9 |  |  | B1 |
|  |  | 4.9 | 2.4 | TRTKIDWNKILS [TRTK12 peptide] |
